Laboratory results: US20240059799A1 (Pfizer, published 2024)

What was measured:
[1] = target: T1, recombinant human TL1A (human, UniProt O95150 71-251); assay: cell-based or functional assay
T1 chain: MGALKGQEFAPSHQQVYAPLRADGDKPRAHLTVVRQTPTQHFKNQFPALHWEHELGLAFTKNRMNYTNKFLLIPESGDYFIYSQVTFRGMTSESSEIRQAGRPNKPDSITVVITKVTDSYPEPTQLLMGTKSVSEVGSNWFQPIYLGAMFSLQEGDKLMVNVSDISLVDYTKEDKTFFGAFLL

[2] = target: T2, recombinant cynomolgus monkey TL1A (cynomolgus monkey, UniProt O95150 72-251 (human entry)); assay: cell-based or functional assay
T2 chain: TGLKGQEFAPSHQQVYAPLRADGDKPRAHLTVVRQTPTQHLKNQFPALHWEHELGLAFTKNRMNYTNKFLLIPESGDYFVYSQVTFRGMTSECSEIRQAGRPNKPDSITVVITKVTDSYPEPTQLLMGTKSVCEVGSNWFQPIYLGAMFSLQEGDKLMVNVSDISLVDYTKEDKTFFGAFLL

[3] = target: T3, human IL-12 (human, UniProt P29460 23-328; P29459 23-219); assay: cell-based or functional assay
T3 sequence 1: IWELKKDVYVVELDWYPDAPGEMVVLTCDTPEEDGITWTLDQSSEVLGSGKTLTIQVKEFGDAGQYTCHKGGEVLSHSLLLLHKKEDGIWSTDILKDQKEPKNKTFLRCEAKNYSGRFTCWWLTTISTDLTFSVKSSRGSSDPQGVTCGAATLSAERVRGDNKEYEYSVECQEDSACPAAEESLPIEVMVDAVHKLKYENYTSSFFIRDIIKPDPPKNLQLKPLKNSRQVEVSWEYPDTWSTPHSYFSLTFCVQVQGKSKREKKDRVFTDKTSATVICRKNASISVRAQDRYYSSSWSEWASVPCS
T3 sequence 2: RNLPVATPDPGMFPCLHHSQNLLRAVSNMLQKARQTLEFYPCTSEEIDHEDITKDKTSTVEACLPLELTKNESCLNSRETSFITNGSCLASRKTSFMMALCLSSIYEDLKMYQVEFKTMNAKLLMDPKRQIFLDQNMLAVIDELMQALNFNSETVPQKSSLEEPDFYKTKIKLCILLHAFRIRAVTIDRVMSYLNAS

[4] = target: T4, cynomolgus monkey IL-12 (cynomolgus monkey); assay: cell-based or functional assay
T4 chain 1: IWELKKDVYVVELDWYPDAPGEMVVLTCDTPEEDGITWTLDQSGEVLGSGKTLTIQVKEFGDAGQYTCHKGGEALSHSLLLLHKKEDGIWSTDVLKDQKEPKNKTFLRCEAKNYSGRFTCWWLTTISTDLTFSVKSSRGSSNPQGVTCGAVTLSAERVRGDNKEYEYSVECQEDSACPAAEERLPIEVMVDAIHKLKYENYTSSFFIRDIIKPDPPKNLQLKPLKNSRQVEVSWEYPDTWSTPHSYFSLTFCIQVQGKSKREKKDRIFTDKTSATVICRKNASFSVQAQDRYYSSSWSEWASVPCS
T4 chain 2: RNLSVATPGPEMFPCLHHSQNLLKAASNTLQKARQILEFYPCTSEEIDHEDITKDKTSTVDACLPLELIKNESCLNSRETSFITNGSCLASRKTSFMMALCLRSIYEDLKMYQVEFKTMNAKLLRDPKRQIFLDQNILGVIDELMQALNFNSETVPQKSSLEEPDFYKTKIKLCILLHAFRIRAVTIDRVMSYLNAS

[5] = target: T5, human IL-23 (human, UniProt P29460 23-328; Q9NPF7 20-189); assay: cell-based or functional assay
T5 sequence 1: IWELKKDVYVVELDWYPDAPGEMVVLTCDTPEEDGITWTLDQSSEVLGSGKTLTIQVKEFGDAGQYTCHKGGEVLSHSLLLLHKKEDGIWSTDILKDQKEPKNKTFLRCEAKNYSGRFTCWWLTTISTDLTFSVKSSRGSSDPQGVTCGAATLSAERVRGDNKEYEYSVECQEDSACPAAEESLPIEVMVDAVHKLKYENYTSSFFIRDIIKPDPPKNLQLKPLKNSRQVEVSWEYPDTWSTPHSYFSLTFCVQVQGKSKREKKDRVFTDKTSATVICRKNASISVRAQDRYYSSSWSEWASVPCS
T5 sequence 2: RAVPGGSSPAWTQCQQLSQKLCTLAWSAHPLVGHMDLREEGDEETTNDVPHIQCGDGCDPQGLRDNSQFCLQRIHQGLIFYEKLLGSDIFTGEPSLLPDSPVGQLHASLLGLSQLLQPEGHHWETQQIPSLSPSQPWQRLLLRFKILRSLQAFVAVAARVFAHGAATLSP

[6] = target: T6, cynomolgus monkey IL-23 (cynomolgus monkey, limits assumed); assay: cell-based or functional assay
T6 chain 1: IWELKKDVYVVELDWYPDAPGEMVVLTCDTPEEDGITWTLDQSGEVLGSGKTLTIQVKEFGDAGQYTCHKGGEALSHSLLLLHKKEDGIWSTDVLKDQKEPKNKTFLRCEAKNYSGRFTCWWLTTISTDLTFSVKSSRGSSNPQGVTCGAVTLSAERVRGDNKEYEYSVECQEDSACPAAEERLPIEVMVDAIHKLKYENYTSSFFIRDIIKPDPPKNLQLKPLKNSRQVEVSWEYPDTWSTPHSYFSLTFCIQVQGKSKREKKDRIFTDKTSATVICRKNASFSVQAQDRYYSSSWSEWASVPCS
T6 chain 2: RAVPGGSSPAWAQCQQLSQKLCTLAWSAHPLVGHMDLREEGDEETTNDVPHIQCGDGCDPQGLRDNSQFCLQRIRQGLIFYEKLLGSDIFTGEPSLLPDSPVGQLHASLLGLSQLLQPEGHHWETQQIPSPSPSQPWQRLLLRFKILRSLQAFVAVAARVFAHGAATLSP

[7] = target: T7, human IL-23 (human, UniProt P29460 23-328; Q9NPF7 20-189); assay: cell-based or functional assay; remark: listed apart in the source
T7 sequence 1: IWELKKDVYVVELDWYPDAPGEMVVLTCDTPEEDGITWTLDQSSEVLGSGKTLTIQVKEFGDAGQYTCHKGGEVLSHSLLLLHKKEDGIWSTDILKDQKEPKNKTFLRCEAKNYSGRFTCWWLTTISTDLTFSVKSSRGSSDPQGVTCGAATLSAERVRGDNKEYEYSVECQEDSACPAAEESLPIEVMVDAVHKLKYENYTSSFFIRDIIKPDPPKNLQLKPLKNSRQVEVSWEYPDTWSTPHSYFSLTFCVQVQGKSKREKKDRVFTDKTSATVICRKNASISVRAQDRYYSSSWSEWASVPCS
T7 sequence 2: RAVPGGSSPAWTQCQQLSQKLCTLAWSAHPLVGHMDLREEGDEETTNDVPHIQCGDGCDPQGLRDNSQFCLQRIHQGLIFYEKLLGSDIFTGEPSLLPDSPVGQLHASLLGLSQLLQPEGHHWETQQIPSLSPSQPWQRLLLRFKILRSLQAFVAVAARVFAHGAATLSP

[8] = target: T8, recombinant human TL1A (human, UniProt O95150 71-251); assay: SPR, 37 C; biotinylated human TL1A captured on Biotin CAPture chip, antibody injected
T8 construct: TL1A is described as a homotrimer; Biotinylated for SPR capture; also called TNFSF15
T8 chain: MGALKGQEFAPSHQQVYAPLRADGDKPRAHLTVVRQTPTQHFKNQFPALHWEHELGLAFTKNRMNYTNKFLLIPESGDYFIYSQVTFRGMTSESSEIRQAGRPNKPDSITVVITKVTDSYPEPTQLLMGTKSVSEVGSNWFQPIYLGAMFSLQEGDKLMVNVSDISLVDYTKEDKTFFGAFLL
Description: SPR was utilized to determine if the affinity constants of each arm of the bispecific variants binding human IL-23, containing the p40 subunit, and human TL1A were the same for each bispecific approach. For the analysis of the p40 binding arm, kinetic assays were conducted at 37° C. using a collection rate of 10 Hz on a Biacore™ 8 K+ instrument (GE Healthcare). An anti-human IgG antibody (anti-human Fc, GE Healthcare, 22-0648-88) was amine coupled to all four flow cells of a carboxymethylated dextran coated sensor chip (GE Healthcare,) using the manufacturer's recommended protocol. […] For the analysis of the TL1A binding arm, kinetic assays were conducted at 37° C. using a collection rate of 10 Hz on a Biacore™ T200 instrument (GE Healthcare).
As described above in EXAMPLE 12, SPR was utilized to determine if the affinity constants of each arm of the bispecific variants binding human IL-23, containing the p40 subunit, and human TL1A were the same for each bispecific variant.

[9] = target: T9, recombinant rat TL1A (rat, UniProt Q8K3Y7 76-252); assay: SPR, Biacore T200, 37 C; biotinylated TL1A captured on Biotin CAPture chip, antibody injected; KD value is approximate
T9 sequence: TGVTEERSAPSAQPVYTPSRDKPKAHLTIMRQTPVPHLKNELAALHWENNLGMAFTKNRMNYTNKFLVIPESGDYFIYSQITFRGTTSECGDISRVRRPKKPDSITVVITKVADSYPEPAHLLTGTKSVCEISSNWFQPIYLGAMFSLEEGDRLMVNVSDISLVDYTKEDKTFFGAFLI
Description: In order to determine binding to TL1A, kinetic assays were conducted at 37° C. using a collection rate of 10 Hz on a Biacore™ T200 instrument (GE Healthcare). […] For the analysis of the p40 binding arm, kinetic assays were conducted at 37° C. using a collection rate of 10 Hz on a Biacore™ 8 K+ instrument (GE Healthcare).

Binder	NF-κB assay in TF-1 reporter cells, neutralization relative to TL1A-0002 [1]	NF-κB assay in TF-1 reporter cells, fold-change of neutralization across species (human against cynomolgus monkey TL1A) [2]	STAT4 activation in human whole blood, fold decreased potency (IC50) compared to p40-0003 [3]	KIT-225 STAT4 phosphorylation, fold-change of potency across species (human against cynomolgus monkey IL-12) [4]	STAT3 activation in human whole blood, fold decreased potency (IC50) compared to p40-0003 [5]	KIT-225 STAT3 phosphorylation, fold-change of potency across species (human against cynomolgus monkey IL-23) [6]	KIT-225 STAT3 assay IL-23, Bioactivity relative to p40-0003 [7]	KIT-225 STAT3 assay IL-23 IC50 [7]	Kd [8]	koff [8]	kon [8]	Kd [9]
p40TL1A-0033 (bispecific antibody, human IgG1, kappa, KiH modified-Fd bispecific: TL1A VL-CL-Fc (hole), TL1A mFd, p40 HC (knob), p40 LC; LS) chain 1: not shown chain 2: QVQLVQSGAEVKKPGASVKVSCKASGYDYTYYGISWVRQAPGQGLEWMGWISTYNTGTHYAPSLQGRVTMTTDTSTSTAYMELRSLRSDDTAVYYCARESYYGSGAFRGGMDVWGQGTTVTVSSASTKGPSVFPLAPSSKSTSGGTAALGCLVKDYFPEPVTVSWNSGALTSGVHTFPAVLQSSGLYSLSSVVTVPSSSLGTQTYICNVNHKPSNTKVDKKVEPKSC heavy: EVQLVQSGAEVKKPGESLKISCKGSGYSFTTYWLGWVRQMPGKGLDWIGIMSPVDSDIRYSPSFQGQVTMSVDKSITTAYLQWNSLKASDTAMYYCARRRPGQGYFDFWGQGTLVTVSSASTKGPSVFPLAPSSKSTSGGTAALGCLVKDYFPEPVTVSWNSGALTSGVHTFPAVLQSSGLYSLSSVVTVPSSSLGTQTYICNVNHKPSNTKVDKKVEPKSCDKTHTCPPCPAPEAAGAPSVFLFPPKPKDTLMISRTPEVTCVVVDVSHEDPEVKFNWYVDGVEVHNAKTKPREEQYNSTYRVVSVLTVLHQDWLNGKEYKCKVSNKALPAPIEKTISKAKGQPREPQVCTLPPSREEMTKNQVSLWCLVKGFYPSDIAVEWESNGQPENNYKTTPPVLDSDGSFFLYSKLTVDKSRWQQGNVFSCSVLHEALHSHYTQKSLSLSPGK light: not shown	≤ 2 fold	1.7 fold	~2.9 fold	1.2 fold	~2.9 fold	1.2 fold						
p40TL1A-0033 bispecific antibody (bispecific antibody, human IgG1, kappa, Single cell KiH, modified Fd format; IgG1 effector-function-minimized Fc with LS mutations) heavy: EVQLVQSGAEVKKPGESLKISCKGSGYSFTTYWLGWVRQMPGKGLDWIGIMSPVDSDIRYSPSFQGQVTMSVDKSITTAYLQWNSLKASDTAMYYCARRRPGQGYFDFWGQGTLVTVSSASTKGPSVFPLAPSSKSTSGGTAALGCLVKDYFPEPVTVSWNSGALTSGVHTFPAVLQSSGLYSLSSVVTVPSSSLGTQTYICNVNHKPSNTKVDKKVEPKSCDKTHTCPPCPAPEAAGAPSVFLFPPKPKDTLMISRTPEVTCVVVDVSHEDPEVKFNWYVDGVEVHNAKTKPREEQYNSTYRVVSVLTVLHQDWLNGKEYKCKVSNKALPAPIEKTISKAKGQPREPQVCTLPPSREEMTKNQVSLWCLVKGFYPSDIAVEWESNGQPENNYKTTPPVLDSDGSFFLYSKLTVDKSRWQQGNVFSCSVLHEALHSHYTQKSLSLSPGK light: not shown chain 1: not shown chain 2: QVQLVQSGAEVKKPGASVKVSCKASGYDYTYYGISWVRQAPGQGLEWMGWISTYNTGTHYAPSLQGRVTMTTDTSTSTAYMELRSLRSDDTAVYYCARESYYGSGAFRGGMDVWGQGTTVTVSSASTKGPSVFPLAPSSKSTSGGTAALGCLVKDYFPEPVTVSWNSGALTSGVHTFPAVLQSSGLYSLSSVVTVPSSSLGTQTYICNVNHKPSNTKVDKKVEPKSC							1.4 fold	2.3 nM	0.622 nM	8.21e-05 s⁻¹	132000 M⁻¹ s⁻¹	~1080 nM
